{"source": "patent US20250320288A1", "about": "“METHOD OF TREATING VITILIGO WITH INTERFERON-GAMMA ANTIBODY” (Elixiron Immunotherapeutics (Hong Kong), priority 2022, published 2025)", "molecules": {"B1": {"name": "EI-001: human monoclonal anti-IFN-γ neutralizing antibody; VH SEQ ID NO: 165, VL SEQ ID NO: 113; N76Q removes VH glycosylation site (antibody, listed as Homo sapiens, V domains shown)", "VH": "EVQLVESGGGLVKPGDSLTVSCVASGFTFSNYFIHWVRQAPGKGLEWVATISGRTKYMFYSDSLRGRFTVSRDNAQNSVYLHMSSLRGEDTALYYCVRGYDHSDSNSAADLLHWGRGTLVTVSS", "VL": "NFMLTQPLSVSGYPGKTIVISCVRSSGSVASHYVQWFQQRPGSAPAMVIYEDSHRPSGIPDRFSGSVDASSNSASLTISGLKTEDEADYFCQSYYGNNQVLFGGGTKLTVL", "modifications": "Recombinant variant antibody sequence", "notes": "human monoclonal anti-IFN-γ neutralizing antibody; N76Q removes VH glycosylation site"}}, "key": {"melanocytes": {"tested_on": "melanocytes", "assay": "Intracellular ROS in melanocytes (CM-H2DCFDA)", "assay_type": "cell-based, human", "details": "melanocytes", "experimental": "Materials and methods: For intracellular ROS measurement, melanocytes were washed with PBS and incubated with 20 μM CM-H2DCFDA (Invitrogen) for 30 min at 37° C. in the dark. The cells were resuspended with PBS and examined with flow cytometry at an excitation wavelength of 488 nm and an emission wavelength of 530 nm; the data were analyzed with FlowJo."}, "recombinant human IFN-γ": {"molecular_target": "T1, recombinant human IFN-γ (Homo sapiens, UniProt P01579)", "T1 sequence (P01579 24-161 limits assumed)": "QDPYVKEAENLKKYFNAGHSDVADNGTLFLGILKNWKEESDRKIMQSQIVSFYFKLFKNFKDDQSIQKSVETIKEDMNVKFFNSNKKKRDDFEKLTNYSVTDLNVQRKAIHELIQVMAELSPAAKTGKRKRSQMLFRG", "assay": "EI-001 neutralization of IFN-γ, restoration of melanocyte melanogenesis", "assay_type": "cell-based", "details": "addition of 2A6Q", "experimental": "Materials and methods: To examine the dose-dependency of IFN-γ inhibition of HEMn-DP cell melanogenesis, HEMn-DP cells were seeded into a 24-well plate at a concentration of 200,000 cells/well in 1 mL assay medium (M254 supplemented with 1× HMGS, 10 ng/mL PMA plus Penicillin-Streptomycin) with serial dilutions of IFN-γ, followed by incubation at 37° C. for 7 days. The cell assay medium was replaced by fresh medium with serially titrated concentrations of IFN-γ on day 3 and day 5. On day 7, cells were first washed with PBS twice, lysed in 250 μL of 1N NaOH/10% DMSO solution, then incubated at 80° C. for 1 hr. After lysis, each lysate was transfer to 96 well plate, and absorbance of melanin was then measured at […]. The relative melanin quantity was normalized with cell viability of each sample which was measured by CellTiter-Glo kit, and data were analyzed using nonlinear regression curve fit using GraphPad Prism7. To determine the potency of EI-001, HEMn-DP cells were seeded as previously described, and IFN-γ pre-incubated with indicated amounts of EI-001 for 25 min in 1 mL of assay medium. After incubation, the mixture was added to each well (final IFN-γ concentration is 20 ng/ml). Melanin content of melanocytes was determined as previously described."}, "SLC7A11": {"tested_on": "SLC7A11", "assay": "Ferroptosis regulators in melanocytes (RNA sequencing, SLC7A11 immunoblot)", "assay_type": "cell-based, human", "details": "melanocytes", "from_the_text": "(§1) Total RNA was extracted from melanocytes with an RNA purification kit (Zymo Research, r2050). After RNA samples were extracted from primary melanocytes and melanocytes cell line (Gibco), the samples were sent to Biotools Co., Ltd Taiwan for RNA sequence. The RNA quality was examined by Agilent Technologies 2100 Bio-analyzer with an RNA integrity value greater than 8. After rRNA depletion (Epicenter), RNA fragmentation, and library preparation (Illumina), the constructed libraries were then performed 150 bp paired-end sequencing by an Illumina NovaSeq6000 sequencer. The results from each sample were aligned to the GRCh38 genome by the HISAT2 software and analyzed by Biotools Co., Ltd Taiwan.\n(§2) Cells were washed in PBS and lysed in RIPA lysis buffer with proteases inhibitor and Phenylmethanesulfonyl fluoride (PMSF; Sigma-Aldrich, P7626). The total cell lysates were sonicated and centrifuged at 4° C., 13000 rpm for 30 min. Protein concentration was quantified using the Bradford assay. The total cell lysates were separated by SDS-PAGE and transferred to a PVDF membrane. The membrane was blocked with 5% BSA or 5% milk in TBST for 1 hour at room temperature and incubated with primary antibodies overnight at 4° C. and HRP-conjugated secondary antibodies for hour at room temperature. The protein was visualized by Thermo ibright1500. Primary antibodies were follows: anti-human SLC7A11 (CST, 12691), anti-human SLC3A2 (CST, 13180), anti-IRF1 (CST, 8478), anti-MITF (CST, 12590), and anti-GAPDH (Abcam, ab8245)."}, "[1]": {"assay": "4-week repeated intravenous infusion GLP toxicology of EI-001", "assay_type": "in vivo", "experimental": "Materials and methods: A total of forty Cynomolgus monkeys (20 females and 20 males) were assigned into 4 groups with 5 animals/gender/group and given EI-001 (2A6Q) (10, 30 and 100 mg/kg) or vehicle (Formulation Buffer) in a volume of 10 mL/kg via 30-min intravenous infusion, once weekly for a total of 5 doses, followed by a 6-week recovery phase. All animals were scheduled to be necropsied at the end of main phase (on Day 30) and at the end of recovery phase (on Day 72). During the study, the following parameters were evaluated: clinical observations, ophthalmology, body weight, food consumption, body temperature (rectal temperature), clinical pathology (hematology, coagulation, plasma chemistry, lymphocyte immunophenotype and urinalysis), gross pathology, organ weight and histopathology. toxicokinetics, immunogenicity, local irritation assessment, cardiovascular (ECG, body surface temperature, blood pressure), respiratory and central nervous system safety pharmacology assessments were conducted concurrently. […] The immunogenicity samples were collected on pre-dose on Days 1, 15, 22, and Days 57, 71."}, "[2]": {"tested_on": "CXCR3 expression on CD8+ T cells", "assay": "CXCR3 expression on CD8+ T cells of activated PBMCs (flow cytometry)", "assay_type": "cell-based, human", "details": "3 individual donors", "experimental": "Materials and methods: PBMCs from healthy adult donors were isolated from whole blood using Ficoll-Paque density gradient centrifugation. PBMCs were cultured in a humidified 37° C. incubator for 24 hours in RPMI-1640 culture medium supplemented with 5% human serum, and standard antibiotics, 2-ME and HEPES. PBMCs were then seeded at 1×10^6 cells/well with 1 mL fresh culture medium/well in a 24-well plate and stimulated by mixing cells with human T cell TransAct (1:200). Antibodies indicated in the Results were then added and mixed well. After 2 days of culture, PBMCs were collected, washed with PBS three times, re-suspended in culture medium and re-cultured with indicated antibodies for an additional 2 days.\nPBMCs were treated as required (see above) and then harvested for flow cytometry antibody staining, using anti-human CD4, anti-human CD8, anti-human CD56 and anti-human CXCR3 antibodies for 30 minutes on ice in the dark. PBMCs were then washed twice with FACS buffer and the expression of CXCR3 determined by flow cytometry using an Attune NxT flow cytometry. Flow cytometry data analysis was performed using FlowJo software."}, "MITF": {"tested_on": "MITF", "assay": "Melanin regulators in melanocytes (RNA sequencing, MITF immunoblot)", "assay_type": "cell-based, human", "details": "melanocytes", "from_the_text": "as §1, §2"}}, "note": "“Also recorded” adds a separate entry of the source."}
{"molecule": "B1", "values": [{"measurement": "reversal of IFN-γ induced ROS / cellular oxidative stress", "setting": "melanocytes", "result": "reverses the ROS"}, {"measurement": "rescue of IFN-γ induced decrease in melanin content", "setting": "recombinant human IFN-γ", "result": "can be rescued; also recorded: reverses"}, {"measurement": "reversal of ferroptosis as demonstrated by SLC7A11", "setting": "SLC7A11", "result": "reverses ferroptosis"}, {"measurement": "survival of treated animals", "setting": "[1]; 10, 30 and 100 mg/kg once weekly", "result": "survived to their scheduled necropsy"}, {"measurement": "tolerability after repeated intravenous infusion for 4 weeks", "setting": "[1]; 10, 30 and 100 mg/kg once weekly, 5 doses", "result": "well-tolerated"}, {"measurement": "mortality rates or susceptibility to infections among the treated monkeys", "setting": "[1]; compared to prior NI-0501 toxicology studies", "result": "did not increase"}, {"measurement": "drug adverse events in in vivo toxicology", "setting": "[1]; cynomolgus monkey, in vivo", "result": "does not cause any significant drug adverse events"}, {"measurement": "observable symptoms of infection", "setting": "[1]; cynomolgus monkey, in vivo", "result": "did not induce"}, {"measurement": "only detected changes related to administration", "setting": "[1]; cynomolgus monkey, in vivo", "result": "seen on a microscopic level"}, {"measurement": "IC50 of EI-001 to inhibit CXCR3 expression on CD8+ T cells", "setting": "[2]", "result": "1.029 to 6.941", "unit": "µg/mL"}, {"measurement": "reversal of IFN-γ induced downregulation of MITF", "setting": "MITF", "result": "reverses"}]}
